T1: hiR2-FL-E594V-T7 (human, UniProt Q6PJF5 1-856)
T1 sequence: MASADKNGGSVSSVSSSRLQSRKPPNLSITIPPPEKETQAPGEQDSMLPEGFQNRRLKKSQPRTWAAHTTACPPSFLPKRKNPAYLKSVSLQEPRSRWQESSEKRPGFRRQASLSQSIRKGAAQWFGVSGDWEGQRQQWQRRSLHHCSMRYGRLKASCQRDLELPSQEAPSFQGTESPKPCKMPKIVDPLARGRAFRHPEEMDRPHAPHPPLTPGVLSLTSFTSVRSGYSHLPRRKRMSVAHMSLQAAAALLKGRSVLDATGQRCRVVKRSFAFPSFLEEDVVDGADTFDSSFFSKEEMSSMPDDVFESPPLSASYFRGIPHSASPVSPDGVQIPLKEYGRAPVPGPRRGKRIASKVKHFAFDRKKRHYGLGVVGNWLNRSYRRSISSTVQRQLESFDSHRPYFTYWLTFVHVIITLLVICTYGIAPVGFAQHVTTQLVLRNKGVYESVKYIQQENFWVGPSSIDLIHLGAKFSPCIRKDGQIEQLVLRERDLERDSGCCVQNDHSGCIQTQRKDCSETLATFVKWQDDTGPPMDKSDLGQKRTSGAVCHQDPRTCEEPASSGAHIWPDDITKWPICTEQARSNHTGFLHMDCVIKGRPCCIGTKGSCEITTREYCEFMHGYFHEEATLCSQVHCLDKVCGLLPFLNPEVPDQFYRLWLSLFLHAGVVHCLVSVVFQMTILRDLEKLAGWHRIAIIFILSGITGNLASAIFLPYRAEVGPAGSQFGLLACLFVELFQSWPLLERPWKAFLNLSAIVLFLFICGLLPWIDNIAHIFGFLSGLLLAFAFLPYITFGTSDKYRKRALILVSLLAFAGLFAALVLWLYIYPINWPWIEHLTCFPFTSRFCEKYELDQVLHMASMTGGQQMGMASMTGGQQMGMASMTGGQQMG


Biological target: T1, hiR2-FL-E594V-T7
Experiment: FACS, MEF-DKO cells, 3 µg/ml
Method in brief: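 Binding read by flow cytometry after a PE goat anti-mouse IgG F(ab′)2 secondary (1:100, on ice, 1 h, dark). Before that, immortalized MEF-DKO lines carrying single-mutant hiR2-FL-T7 constructs were incubated 1 h on ice with 3 μg/ml antibody or FACS buffer alone.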

Row | Binder | loss of binding vs wild type [%]
1 | antibody 48 (antibody, V domains shown, mouse IgG, kappa light chain; also called clone #48; purified antibody 48) VH: QVQLQQSGTELVRPGTSVKVSCKASGYAFTNYLIEWVKQRPGQGLEWIGVINPGSGFTKYNEKFKGKATLTADKSSSTVYMHLSSLTSEDSAVYFCARGLYRAMDYWGQGTSVTVSS VL: DIQMTQSPASQSASLGESVTITCLASQTIATWLAWYQQKPGKSPQLLIYGATTLADGVPSRFSGGGSGTKFSFKISSLQAEDFVSYYCQQLYSTPYTFGGGTKLEIK | ≥ 30
2 | antibody 50 (antibody, V domains shown, mouse IgG, kappa light chain; also called clone #50; purified antibody 50) VH: QVQLQQSGAELVRPGASVKVSCKASGYAFSNYLIEWVKQRPGQGLEWIGVINPGSGFTKYNEKFKGKATLTADKSSSTAYMQLSSLTSEDSAVYFCARGLYRAMDYWGQGTSVTVSS VL: DIQMTQSPASQSASLGESVTITCLASQTIGTWLAWYQQKPGKSPQLLIYAAASLADGVPSRFSGGGSGTKFSFKISSLQAEDFVNYYCQQIYSTPYTFGGGTKLEIK | ≥ 30

Reference: patent publication US20240287172A1 (SCIRHOM, published 2024)
